US20230272116A1 (Hoffmann-La Roche, published 2023)

T1: Carcinoembryonic antigen (CEA), Carcinoembryonic antigen-related cell adhesion molecule 5 (CEACAM5), on cells (human, UniProt P06731 35-685)
T1 construct: whole, on cells; also called CEA on MKN-45 cells; CEA in BxPC3 tumours
T1 sequence (looked up): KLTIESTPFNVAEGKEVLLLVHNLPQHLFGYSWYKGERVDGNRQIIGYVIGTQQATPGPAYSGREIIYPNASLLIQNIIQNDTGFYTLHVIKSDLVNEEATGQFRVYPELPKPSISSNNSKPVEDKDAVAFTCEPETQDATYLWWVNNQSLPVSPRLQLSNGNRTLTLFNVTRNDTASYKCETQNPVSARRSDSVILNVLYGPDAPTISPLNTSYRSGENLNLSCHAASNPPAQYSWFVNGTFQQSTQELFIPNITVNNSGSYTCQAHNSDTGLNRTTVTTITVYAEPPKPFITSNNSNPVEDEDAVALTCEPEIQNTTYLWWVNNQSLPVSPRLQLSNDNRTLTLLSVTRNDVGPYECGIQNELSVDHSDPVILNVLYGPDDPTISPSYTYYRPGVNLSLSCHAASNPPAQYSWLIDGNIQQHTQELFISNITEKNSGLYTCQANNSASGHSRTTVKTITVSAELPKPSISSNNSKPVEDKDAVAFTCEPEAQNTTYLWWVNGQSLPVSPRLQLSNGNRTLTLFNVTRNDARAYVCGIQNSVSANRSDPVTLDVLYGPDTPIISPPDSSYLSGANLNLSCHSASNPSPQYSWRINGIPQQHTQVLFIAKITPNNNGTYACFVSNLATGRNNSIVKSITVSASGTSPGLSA

B1: P1AF0713 (CEA CH1A1A split DOTA-VH-AST) (antibody, human IgG1, kappa, L234A L235A)
heavy 1: QVQLVQSGAEVKKPGASVKVSCKASGYTFTEFGMNWVRQAPGQGLEWMGWINTKTGEATYVEEFKGRVTFTTDTSTSTAYMELRSLRSDDTAVYYCARWDFAYYVEAMDYWGQGTTVTVSSASTKGPSVFPLAPSSKSTSGGTAALGCLVKDYFPEPVTVSWNSGALTSGVHTFPAVLQSSGLYSLSSVVTVPSSSLGTQTYICNVNHKPSNTKVDKKVEPKSCDKTHTCPPCPAPEAAGGPSVFLFPPKPKDTLMISRTPEVTCVVVDVSHEDPEVKFNWYVDGVEVHNAKTKPREEQYNSTYRVVSVLTVLHQDWLNGKEYKCKVSNKALGAPIEKTISKAKGQPREPQVCTLPPSRDELTKNQVSLSCAVKGFYPSDIAVEWESNGQPENNYKTTPPVLDSDGSFFLVSKLTVDKSRWQQGNVFSCSVMHEALHNHYTQKSLSLSPG
heavy 2: not shown
light: DIQMTQSPSSLSASVGDRVTITCKASAAVGTYVAWYQQKPGKAPKLLIYSASYRKRGVPSRFSGSGSGTDFTLTISSLQPEDFATYYCHQYYTYPLFTFGQGTKLEIKRTVAAPSVFIFPPSDEQLKSGTASVVCLLNNFYPREAKVQWKVDNALQSGNSQESVTEQDSKDSTYSLSSTLTLSKADYEKHKVYACEVTHQGLSSPVTKSFNRGEC
notes: CH1A1A anti-CEA IgG1 (knob-into-hole); also called CEA specific SPLIT antibody; P6_B

Assays:
[1] = molecular target: B1; test: cell-based or functional assay
[2] = molecular target: T1, Carcinoembryonic antigen (CEA), …; test: flow cytometry on MKN-45 cells, detection with anti-huIgG(H+L)-Alexa488
Experimental: MKN-45 cells were detached from the culture bottle using Trypsin and were counted using a Casy cell counter. After pelleting at 4° C., 300 g the cells were resuspended in FACS Buffer (2.5% FCS in PBS), adjusted to 2.0E+06 cells/mL dispensed to 96-well PP V-bottom-Platte (25 μL/well=5.0E+04 Zellen/well).
Both antibodies were added to the cells either separated followed by buffer or combined and incubated at 4° C. for 1 h. The cells were then washed twice in FACS buffer. After washing, the cells were resuspended in 50 μL FACS-buffer containing secondary antibody (<huIgG(H+L)>-Alexa488, c=10 μg/mL) and incubated 1 h at 4° C. The cells were then washed twice in FACS buffer and resuspended in 70 μl/well FACS buffer for measurement using a FACS Canto (BD, Pharmingen).

[3] = molecular target: T1, Carcinoembryonic antigen (CEA), …; test: FACS on MKN-45 cells; hemibody mixed 1:1 with human ISO control; detection with anti-human IgG(H+L) secondary antibody
Experimental: To assess the functionality of the split antibodies or hemibodies, MKN-45 cells were detached from the culture vessel using accutase at 37° C. for 10 minutes. Subequently, the cells were washed twice in PBS, and seeded into 96 well v-bottom plates to a final density of 4×10⁶ cells/well.
Subsequently, the cells were incubated for 1 h on ice and washed twice in PBS. The cell pellet was resuspended and 40 μl/well of detection reagent was added, either <human IgG(H+L)>FITC, (10 μg/ml) or Pb_Dotam_FITC 1:100=>(10 μg/ml) in PBS/5% FCS. After 60 min incubation on ice, the cells were washed twice in PBS and resuspended in 200 μl PBS/5% FCS for measurement of FITC fluorescence using a FACS canto.

| Binder | EC50 µg/ml absolute, DOTA-FITC (Pb-DOTA-FITC detection on MKN-45 cells, FACS) [1] [µg/mL] | EC50 [2] [µg/mL] | EC50 (read off the curve) [3] [µg/mL] |
| --- | --- | --- | --- |
| P1AF0712 (CEA CH1A1A split DOTA-VL) (antibody, human IgG1, kappa, L234A L235A, CH1A1A anti-CEA IgG1 (knob-into-hole); also called CEA specific SPLIT antibody; P6_A) heavy 1: not shown heavy 2: QVQLVQSGAEVKKPGASVKVSCKASGYTFTEFGMNWVRQAPGQGLEWMGWINTKTGEATYVEEFKGRVTFTTDTSTSTAYMELRSLRSDDTAVYYCARWDFAYYVEAMDYWGQGTTVTVSSASTKGPSVFPLAPSSKSTSGGTAALGCLVKDYFPEPVTVSWNSGALTSGVHTFPAVLQSSGLYSLSSVVTVPSSSLGTQTYICNVNHKPSNTKVDKKVEPKSCDKTHTCPPCPAPEAAGGPSVFLFPPKPKDTLMISRTPEVTCVVVDVSHEDPEVKFNWYVDGVEVHNAKTKPREEQYNSTYRVVSVLTVLHQDWLNGKEYKCKVSNKALGAPIEKTISKAKGQPREPQVCTLPPSRDELTKNQVSLSCAVKGFYPSDIAVEWESNGQPENNYKTTPPVLDSDGSFFLVSKLTVDKSRWQQGNVFSCSVMHEALHNHYTQKSLSLSPGGGGGSGGGGSGGGGSGGGGSQAVVIQESALTTPPGETVTLTCGSSTGAVTASNYANWVQEKPDHLFTGLIGGHNNRPPGVPARFSGSLIGDKAALTIAGTQTEDEAIYFCALWYSDHWVIGGGTKLTVL light: DIQMTQSPSSLSASVGDRVTITCKASAAVGTYVAWYQQKPGKAPKLLIYSASYRKRGVPSRFSGSGSGTDFTLTISSLQPEDFATYYCHQYYTYPLFTFGQGTKLEIKRTVAAPSVFIFPPSDEQLKSGTASVVCLLNNFYPREAKVQWKVDNALQSGNSQESVTEQDSKDSTYSLSSTLTLSKADYEKHKVYACEVTHQGLSSPVTKSFNRGEC | 2.4 | 2.7 | – |
| CEA-split-DOTAM-VH P1AD8749 (antibody, human IgG1, kappa, L234A L235A, CH1A1A anti-CEA IgG1 (knob-into-hole, PG LALA); Both heavy chains carry VH-CH1, so the light chain pairs with each; also called PRIT Split Antibody with DOTAM-VH; hemibody) heavy 1: QVQLVQSGAEVKKPGASVKVSCKASGYTFTEFGMNWVRQAPGQGLEWMGWINTKTGEATYVEEFKGRVTFTTDTSTSTAYMELRSLRSDDTAVYYCARWDFAYYVEAMDYWGQGTTVTVSSASTKGPSVFPLAPSSKSTSGGTAALGCLVKDYFPEPVTVSWNSGALTSGVHTFPAVLQSSGLYSLSSVVTVPSSSLGTQTYICNVNHKPSNTKVDKKVEPKSCDKTHTCPPCPAPEAAGGPSVFLFPPKPKDTLMISRTPEVTCVVVDVSHEDPEVKFNWYVDGVEVHNAKTKPREEQYNSTYRVVSVLTVLHQDWLNGKEYKCKVSNKALGAPIEKTISKAKGQPREPQVCTLPPSRDELTKNQVSLSCAVKGFYPSDIAVEWESNGQPENNYKTTPPVLDSDGSFFLVSKLTVDKSRWQQGNVFSCSVMHEALHNHYTQKSLSLSPG heavy 2: not shown light: DIQMTQSPSSLSASVGDRVTITCKASAAVGTYVAWYQQKPGKAPKLLIYSASYRKRGVPSRFSGSGSGTDFTLTISSLQPEDFATYYCHQYYTYPLFTFGQGTKLEIKRTVAAPSVFIFPPSDEQLKSGTASVVCLLNNFYPREAKVQWKVDNALQSGNSQESVTEQDSKDSTYSLSSTLTLSKADYEKHKVYACEVTHQGLSSPVTKSFNRGEC | – | – | ~1 |
| B1 | – | 2.3 | – |
